Results on 2 molecules are retold here after doi:10.64898/2025.12.16.694593 (bioRxiv, 2025).

Experiment [1] deals with His-SNAP-Mtb Ku (Mycobacterium tuberculosis) (UniProt P9WKD9). Nature of the experiment: SEC.
Experiment [2] has as its target Mtb LigD WT (Mycobacterium tuberculosis, UniProt P9WNV3 1-759). Nature of the experiment: […].

Mtb LigD WT, sequence (P9WNV3 whole entry): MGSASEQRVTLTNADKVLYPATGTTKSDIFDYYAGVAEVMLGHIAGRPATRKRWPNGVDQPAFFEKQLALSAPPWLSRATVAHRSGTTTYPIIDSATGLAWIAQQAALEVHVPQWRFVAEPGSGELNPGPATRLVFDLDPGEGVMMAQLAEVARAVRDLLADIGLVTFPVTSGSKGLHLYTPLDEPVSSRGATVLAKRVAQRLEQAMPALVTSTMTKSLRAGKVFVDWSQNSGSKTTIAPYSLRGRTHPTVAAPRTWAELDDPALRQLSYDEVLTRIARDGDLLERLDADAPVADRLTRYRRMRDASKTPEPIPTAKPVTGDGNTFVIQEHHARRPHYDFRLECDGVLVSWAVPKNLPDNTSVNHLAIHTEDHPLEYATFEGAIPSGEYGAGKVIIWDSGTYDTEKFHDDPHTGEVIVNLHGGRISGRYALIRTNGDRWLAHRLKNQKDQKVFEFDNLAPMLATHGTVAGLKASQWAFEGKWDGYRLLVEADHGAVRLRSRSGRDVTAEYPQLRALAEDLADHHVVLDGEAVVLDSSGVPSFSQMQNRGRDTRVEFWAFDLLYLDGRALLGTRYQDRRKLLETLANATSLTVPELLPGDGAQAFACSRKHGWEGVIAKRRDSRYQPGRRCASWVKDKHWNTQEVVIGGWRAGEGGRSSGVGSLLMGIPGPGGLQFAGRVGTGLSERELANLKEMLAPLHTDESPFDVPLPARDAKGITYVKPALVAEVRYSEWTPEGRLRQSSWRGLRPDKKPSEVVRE

For the molecule “His-SNAP-Mtb Ku (from UniProt P9WKD9 1-273) (natural protein)”, in experiment [1], the stoichiometry N (usually a count of units in the complex or per binding partner) amounted to 2.

B1: His-SNAP-Mtb Ku (natural protein)
chain: MRAIWTGSIAFGLVNVPVKVYSATADHDIRFHQVHAKDNGRIRYKRVCEACGEVVDYRDLARAYESGDGQMVAITDDDIASLPEERSREIEVLEFVPAADVDPMMFDRSYFLEPDSKSSKSYVLLAKTLAETDRMAIVHFTLRNKTRLAALRVKDFGKREVMMVHTLLWPDEIRDPDFPVLDQKVEIKPAELKMAGQVVDSMADDFNPDRYHDTYQEQLQELIDTKLEGGQAFTAEDQPRLLDEPEDVSDLLAKLEASVKARSKANSNVPTPP
Turning to B1, the binding result in experiment [2] was “binds”.
